Test results as given in patent US20200087347 (published 2020).
[ ]: non-standard residue; d: D form. NMeK = CN[C@@H](CCCCN)C(=O)O

Assays:
Assay in all cases: competition
integrin αvβ6 = target: T1, integrin αvβ6 (human, UniProt P06756)
T1 chain 1: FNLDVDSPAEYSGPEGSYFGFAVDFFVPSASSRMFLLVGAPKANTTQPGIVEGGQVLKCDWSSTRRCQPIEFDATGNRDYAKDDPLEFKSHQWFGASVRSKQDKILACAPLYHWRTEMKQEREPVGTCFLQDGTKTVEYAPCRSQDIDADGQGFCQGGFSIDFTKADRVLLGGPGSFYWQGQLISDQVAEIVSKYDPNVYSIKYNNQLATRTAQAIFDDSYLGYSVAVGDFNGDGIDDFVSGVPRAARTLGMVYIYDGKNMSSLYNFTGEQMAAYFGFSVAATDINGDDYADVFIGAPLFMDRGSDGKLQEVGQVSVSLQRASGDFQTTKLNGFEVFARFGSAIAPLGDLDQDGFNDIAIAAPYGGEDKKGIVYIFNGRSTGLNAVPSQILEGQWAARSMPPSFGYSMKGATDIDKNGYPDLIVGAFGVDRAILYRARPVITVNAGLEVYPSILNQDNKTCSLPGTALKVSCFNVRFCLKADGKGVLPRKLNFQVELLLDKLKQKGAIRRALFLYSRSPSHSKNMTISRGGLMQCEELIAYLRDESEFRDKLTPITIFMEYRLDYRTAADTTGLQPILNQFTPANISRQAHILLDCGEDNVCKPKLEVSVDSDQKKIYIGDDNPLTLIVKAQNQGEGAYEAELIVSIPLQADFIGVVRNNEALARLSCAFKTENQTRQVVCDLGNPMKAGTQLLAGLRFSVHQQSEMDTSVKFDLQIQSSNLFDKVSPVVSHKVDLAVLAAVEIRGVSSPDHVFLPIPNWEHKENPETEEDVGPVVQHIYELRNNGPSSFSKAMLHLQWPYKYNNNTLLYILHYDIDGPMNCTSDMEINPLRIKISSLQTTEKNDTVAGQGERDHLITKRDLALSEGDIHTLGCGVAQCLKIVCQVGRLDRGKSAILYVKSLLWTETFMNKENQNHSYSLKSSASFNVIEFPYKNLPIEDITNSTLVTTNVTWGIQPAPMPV
T1 chain 2: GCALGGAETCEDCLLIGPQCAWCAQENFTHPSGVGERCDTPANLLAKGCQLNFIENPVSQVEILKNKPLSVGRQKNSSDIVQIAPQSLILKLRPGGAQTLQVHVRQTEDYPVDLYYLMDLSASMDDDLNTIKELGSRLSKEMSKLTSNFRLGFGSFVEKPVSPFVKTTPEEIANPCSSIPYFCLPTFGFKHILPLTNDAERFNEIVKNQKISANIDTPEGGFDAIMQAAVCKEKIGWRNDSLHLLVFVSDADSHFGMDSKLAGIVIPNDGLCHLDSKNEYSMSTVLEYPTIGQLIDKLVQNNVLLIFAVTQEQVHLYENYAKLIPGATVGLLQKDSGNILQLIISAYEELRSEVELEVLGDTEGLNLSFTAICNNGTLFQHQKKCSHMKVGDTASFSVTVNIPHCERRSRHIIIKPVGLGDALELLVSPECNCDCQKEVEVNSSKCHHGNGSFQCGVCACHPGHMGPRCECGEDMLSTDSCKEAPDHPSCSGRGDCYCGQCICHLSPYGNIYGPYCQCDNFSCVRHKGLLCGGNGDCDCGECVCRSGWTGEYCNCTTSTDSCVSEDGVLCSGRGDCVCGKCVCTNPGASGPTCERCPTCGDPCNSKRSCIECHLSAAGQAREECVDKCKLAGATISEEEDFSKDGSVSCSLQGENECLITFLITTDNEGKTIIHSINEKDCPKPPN

integrin αvβ3 = target: T2, integrin αvβ3 (human, UniProt P06756)
T2 chain 1: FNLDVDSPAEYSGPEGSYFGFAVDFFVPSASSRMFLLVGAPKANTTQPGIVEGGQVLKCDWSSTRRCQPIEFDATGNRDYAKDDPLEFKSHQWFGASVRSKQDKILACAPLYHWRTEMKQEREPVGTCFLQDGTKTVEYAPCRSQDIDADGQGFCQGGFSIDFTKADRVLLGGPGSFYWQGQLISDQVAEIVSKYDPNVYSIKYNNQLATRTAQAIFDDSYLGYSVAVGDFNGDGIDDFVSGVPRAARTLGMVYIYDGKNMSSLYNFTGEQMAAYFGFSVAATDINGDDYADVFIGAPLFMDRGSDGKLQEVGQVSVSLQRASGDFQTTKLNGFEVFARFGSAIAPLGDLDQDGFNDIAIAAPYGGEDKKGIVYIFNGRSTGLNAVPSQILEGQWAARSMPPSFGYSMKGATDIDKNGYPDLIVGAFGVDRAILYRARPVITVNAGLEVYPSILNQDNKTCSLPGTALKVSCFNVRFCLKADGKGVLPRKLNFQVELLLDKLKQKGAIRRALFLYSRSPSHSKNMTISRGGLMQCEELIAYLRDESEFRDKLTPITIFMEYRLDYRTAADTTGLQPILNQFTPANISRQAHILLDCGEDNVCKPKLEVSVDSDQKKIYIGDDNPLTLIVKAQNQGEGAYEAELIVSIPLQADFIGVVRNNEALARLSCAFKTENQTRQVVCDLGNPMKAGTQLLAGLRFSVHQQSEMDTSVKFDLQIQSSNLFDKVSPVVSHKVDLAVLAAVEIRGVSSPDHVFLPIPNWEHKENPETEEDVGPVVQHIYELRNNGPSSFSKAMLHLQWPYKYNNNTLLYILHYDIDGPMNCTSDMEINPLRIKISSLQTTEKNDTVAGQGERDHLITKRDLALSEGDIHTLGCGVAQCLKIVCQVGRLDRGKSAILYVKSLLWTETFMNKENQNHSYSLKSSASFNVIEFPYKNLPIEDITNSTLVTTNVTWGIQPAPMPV
T2 chain 2: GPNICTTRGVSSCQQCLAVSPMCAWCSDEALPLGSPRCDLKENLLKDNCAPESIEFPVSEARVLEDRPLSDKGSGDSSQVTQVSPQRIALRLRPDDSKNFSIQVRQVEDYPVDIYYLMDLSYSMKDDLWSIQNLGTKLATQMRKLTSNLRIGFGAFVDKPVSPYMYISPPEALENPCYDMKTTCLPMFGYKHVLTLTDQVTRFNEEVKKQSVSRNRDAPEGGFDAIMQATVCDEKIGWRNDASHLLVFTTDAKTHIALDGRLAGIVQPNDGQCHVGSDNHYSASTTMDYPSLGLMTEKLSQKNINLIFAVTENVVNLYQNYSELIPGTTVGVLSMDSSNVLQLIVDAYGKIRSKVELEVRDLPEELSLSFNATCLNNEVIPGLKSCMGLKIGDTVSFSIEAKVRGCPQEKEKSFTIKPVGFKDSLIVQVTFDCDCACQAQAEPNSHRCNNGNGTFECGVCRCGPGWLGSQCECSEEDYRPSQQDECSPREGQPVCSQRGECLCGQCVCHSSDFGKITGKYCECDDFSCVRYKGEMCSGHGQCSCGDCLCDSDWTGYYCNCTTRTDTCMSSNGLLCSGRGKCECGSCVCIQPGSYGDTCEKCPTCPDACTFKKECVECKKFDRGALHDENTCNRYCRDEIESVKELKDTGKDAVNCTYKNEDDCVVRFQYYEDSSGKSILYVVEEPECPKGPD

integrin α5β1 = integrin α5β1 (human, UniProt P08648)
integrin αvβ5 = target: T3, integrin αvβ5 (human, UniProt P06756)
T3 chain 1: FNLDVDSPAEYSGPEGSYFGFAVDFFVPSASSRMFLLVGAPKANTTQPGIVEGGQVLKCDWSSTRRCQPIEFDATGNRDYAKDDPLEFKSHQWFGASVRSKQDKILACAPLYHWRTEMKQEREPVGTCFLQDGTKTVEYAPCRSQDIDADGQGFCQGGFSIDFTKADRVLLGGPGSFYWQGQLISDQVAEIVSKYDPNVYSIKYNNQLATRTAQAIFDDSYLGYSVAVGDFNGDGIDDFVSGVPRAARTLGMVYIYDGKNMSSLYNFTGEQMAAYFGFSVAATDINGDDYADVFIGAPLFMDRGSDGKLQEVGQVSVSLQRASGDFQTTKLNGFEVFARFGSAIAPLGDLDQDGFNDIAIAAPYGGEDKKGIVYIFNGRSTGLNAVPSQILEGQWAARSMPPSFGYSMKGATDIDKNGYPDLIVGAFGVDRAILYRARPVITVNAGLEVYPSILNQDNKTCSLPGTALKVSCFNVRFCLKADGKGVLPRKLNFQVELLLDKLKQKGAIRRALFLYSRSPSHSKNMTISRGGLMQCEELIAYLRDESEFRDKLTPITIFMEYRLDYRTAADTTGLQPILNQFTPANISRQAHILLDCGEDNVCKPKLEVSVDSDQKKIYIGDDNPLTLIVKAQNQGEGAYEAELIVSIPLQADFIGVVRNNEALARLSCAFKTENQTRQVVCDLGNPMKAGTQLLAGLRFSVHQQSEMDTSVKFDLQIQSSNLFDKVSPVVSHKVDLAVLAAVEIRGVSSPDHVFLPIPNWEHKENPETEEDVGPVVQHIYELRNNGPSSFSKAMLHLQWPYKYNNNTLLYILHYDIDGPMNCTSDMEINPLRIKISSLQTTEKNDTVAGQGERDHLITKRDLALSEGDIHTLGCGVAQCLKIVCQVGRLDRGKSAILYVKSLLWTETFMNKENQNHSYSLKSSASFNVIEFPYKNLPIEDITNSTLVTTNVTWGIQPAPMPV
T3 chain 2: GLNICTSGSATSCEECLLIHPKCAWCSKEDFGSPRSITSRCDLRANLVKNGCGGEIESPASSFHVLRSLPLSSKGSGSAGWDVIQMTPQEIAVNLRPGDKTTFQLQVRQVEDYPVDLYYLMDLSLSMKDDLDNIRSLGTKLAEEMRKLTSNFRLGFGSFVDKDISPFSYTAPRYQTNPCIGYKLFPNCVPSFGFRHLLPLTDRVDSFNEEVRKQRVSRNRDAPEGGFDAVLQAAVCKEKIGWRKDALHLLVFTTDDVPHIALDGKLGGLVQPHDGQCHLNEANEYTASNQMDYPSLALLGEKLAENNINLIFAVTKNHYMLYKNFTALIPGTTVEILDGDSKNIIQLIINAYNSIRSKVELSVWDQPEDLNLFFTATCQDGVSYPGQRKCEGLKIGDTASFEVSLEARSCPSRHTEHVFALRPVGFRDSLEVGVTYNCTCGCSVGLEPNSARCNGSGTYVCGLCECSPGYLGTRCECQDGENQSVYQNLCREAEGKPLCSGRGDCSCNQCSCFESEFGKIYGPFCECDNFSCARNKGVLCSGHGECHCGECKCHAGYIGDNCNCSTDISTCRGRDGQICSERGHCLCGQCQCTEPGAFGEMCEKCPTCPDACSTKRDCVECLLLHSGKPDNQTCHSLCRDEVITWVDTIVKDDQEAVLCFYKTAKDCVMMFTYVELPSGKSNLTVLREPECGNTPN

integrin αvβ8 = target: T4, integrin αvβ8 (human, UniProt P06756)
T4 chain 1: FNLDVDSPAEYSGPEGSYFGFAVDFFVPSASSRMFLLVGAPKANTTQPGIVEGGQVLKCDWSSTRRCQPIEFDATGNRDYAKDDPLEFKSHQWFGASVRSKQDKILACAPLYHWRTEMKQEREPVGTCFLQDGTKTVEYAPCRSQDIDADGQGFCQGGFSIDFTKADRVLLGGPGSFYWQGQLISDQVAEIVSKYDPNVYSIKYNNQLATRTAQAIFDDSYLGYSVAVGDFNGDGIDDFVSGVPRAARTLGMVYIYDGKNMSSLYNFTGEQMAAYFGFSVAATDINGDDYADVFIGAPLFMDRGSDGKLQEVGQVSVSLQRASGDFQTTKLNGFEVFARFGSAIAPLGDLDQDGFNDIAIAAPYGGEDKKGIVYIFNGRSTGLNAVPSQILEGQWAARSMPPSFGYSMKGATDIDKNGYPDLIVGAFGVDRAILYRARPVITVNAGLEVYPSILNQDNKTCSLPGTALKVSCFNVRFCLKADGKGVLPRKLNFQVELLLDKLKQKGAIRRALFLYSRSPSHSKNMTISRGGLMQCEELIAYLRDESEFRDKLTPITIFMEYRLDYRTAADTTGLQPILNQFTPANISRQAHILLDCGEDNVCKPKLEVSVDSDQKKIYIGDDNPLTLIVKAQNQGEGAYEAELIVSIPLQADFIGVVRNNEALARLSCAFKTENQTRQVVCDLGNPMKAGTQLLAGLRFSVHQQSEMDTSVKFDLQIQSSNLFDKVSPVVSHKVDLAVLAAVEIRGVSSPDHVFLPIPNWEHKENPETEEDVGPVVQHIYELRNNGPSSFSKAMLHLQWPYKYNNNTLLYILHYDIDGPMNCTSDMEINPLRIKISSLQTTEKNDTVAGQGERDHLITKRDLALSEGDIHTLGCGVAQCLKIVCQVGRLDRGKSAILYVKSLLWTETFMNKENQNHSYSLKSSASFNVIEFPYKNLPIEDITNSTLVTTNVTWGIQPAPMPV
T4 chain 2: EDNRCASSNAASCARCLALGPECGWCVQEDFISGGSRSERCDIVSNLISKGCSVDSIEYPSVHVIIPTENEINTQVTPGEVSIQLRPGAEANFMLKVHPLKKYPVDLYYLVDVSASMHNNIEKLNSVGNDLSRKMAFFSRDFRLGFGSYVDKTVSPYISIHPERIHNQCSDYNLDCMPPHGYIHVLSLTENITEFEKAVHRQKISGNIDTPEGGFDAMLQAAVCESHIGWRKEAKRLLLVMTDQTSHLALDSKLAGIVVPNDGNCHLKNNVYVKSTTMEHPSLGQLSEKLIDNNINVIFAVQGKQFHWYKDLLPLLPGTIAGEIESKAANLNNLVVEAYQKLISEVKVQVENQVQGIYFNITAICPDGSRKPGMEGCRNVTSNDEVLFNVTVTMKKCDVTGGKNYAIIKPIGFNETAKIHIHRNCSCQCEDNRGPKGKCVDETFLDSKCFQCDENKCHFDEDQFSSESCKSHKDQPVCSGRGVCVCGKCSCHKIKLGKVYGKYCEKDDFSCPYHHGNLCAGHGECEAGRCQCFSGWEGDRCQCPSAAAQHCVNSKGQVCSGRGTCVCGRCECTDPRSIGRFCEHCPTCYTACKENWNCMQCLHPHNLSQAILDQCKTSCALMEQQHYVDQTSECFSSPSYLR

integrin αIIbβ3 = integrin αIIbβ3 (human, UniProt P08514)

integrin α5β1, sequence (P08648 42-1049, chain 1 of 2): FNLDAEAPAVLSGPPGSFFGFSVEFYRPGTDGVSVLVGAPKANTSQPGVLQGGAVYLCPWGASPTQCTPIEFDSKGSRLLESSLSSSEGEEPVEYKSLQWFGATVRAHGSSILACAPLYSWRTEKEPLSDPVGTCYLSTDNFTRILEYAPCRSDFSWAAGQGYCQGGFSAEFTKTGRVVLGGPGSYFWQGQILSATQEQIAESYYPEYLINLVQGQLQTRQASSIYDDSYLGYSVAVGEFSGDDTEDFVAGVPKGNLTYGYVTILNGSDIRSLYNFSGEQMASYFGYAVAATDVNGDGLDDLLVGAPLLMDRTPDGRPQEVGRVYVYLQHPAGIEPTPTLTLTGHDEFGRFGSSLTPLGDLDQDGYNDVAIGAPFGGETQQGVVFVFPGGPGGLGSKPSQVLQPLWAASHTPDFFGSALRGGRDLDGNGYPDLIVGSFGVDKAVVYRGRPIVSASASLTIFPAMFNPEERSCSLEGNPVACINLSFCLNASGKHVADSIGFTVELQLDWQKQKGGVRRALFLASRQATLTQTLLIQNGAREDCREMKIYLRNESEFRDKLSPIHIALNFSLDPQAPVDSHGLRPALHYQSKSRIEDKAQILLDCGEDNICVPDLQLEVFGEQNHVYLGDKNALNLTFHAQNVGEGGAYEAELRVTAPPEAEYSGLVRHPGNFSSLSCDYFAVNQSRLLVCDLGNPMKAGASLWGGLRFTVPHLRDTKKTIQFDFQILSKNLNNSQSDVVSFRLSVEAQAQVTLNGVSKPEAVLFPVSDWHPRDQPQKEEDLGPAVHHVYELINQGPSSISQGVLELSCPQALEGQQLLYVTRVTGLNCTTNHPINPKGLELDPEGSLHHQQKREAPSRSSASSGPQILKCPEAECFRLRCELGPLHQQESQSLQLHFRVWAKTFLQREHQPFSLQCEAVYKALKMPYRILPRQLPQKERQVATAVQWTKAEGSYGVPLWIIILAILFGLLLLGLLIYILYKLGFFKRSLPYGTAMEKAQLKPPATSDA
integrin α5β1, sequence (chain, as listed by the source, chain 2 of 2): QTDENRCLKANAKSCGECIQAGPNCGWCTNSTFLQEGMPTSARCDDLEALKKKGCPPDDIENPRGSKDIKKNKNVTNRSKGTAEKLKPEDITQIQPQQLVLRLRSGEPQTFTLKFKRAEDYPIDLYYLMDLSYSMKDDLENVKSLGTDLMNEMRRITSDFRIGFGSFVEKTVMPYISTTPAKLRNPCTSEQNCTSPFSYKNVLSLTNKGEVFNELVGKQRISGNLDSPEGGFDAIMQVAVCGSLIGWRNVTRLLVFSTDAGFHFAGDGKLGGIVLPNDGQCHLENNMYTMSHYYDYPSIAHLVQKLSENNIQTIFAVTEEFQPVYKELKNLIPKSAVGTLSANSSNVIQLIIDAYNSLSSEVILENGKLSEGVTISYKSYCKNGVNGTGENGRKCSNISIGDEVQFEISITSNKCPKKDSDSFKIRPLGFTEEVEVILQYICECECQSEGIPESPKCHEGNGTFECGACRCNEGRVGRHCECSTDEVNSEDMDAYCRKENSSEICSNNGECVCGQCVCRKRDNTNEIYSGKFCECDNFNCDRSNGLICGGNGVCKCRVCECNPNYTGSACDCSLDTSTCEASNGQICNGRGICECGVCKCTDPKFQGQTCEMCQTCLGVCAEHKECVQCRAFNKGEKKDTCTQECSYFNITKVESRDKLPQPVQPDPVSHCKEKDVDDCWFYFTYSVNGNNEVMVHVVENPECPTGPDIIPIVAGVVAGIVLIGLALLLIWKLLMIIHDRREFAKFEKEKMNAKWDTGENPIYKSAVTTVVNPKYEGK

IC50 (integrin αvβ6): 0.201 µM
IC50 (integrin αvβ3): > 1 µM
IC50 (integrin α5β1): > 1 µM
IC50 (integrin αvβ5): > 1 µM
IC50 (integrin αvβ8): 0.0065 µM
IC50 (integrin αIIbβ3): > 1 µM
B1: Compound 8 (peptide)
chain: cyclo(RGDL[dP][NMeK]GL)
SMILES: CC(C)C[C@@H]1NC(=O)CNC(=O)[C@H](CCCCN)N(C)C(=O)[C@H]2CCCN2C(=O)[C@H](CC(C)C)NC(=O)[C@H](CC(=O)O)NC(=O)CNC(=O)[C@H](CCCNC(=N)N)NC1=O
